According to the supplement of paper PMC6757056:
± gives the standard deviation of the averaged measurements.

B1: library; a variant is named by its letters at N, in order (parent)
chain: GCUGUCACCGGUGUAUUACCCUAGUGGUCGACCGGUCUGAUGAGUCUNNNNNNAGACGAAACAGC

Key:
[1] = variants of: B1; assay: FACS-Seq fitted mean relative fluorescence mCherry/BFP without ligand (log10 relative fluorescence); ligand: hypoxanthine (xanthine aptamer); higher = higher reporter protein expression; details: HEK293T, ligand present: no
In short: (§1)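 Fluorescence comes from a normal fit to bin counts, normalized against controls. HEK293T libraries lentivirally given a ribozyme-switch mCherry reporter and an EF1α-BFP marker were enriched, incubated 48 h with or without ligand, and sorted by mCherry/BFP into 6 bins. Bin genomic DNA was PCR-amplified, barcoded and sequenced on MiSeq. The log10(mCherry/BFP) mean was scaled to five spiked-in control ribozymes.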

[2] = variants of: B1; assay: normalized RNA/DNA level with ligand (relative to sTRSVctl = 100) (log10 (% of sTRSVctl)); ligand: hypoxanthine (xanthine aptamer); higher = less ribozyme self-cleavage, higher mRNA level; details: ligand concentration (+) RNA-Seq: 5 mM, HEK293T, reporter: mCherry (pCS4076), ligand present: yes
In short: (§2)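 Library plasmids encoding reporter-linked ribozyme switches (mCherry, or eGFP for some folinic acid experiments) were transfected into HEK293T at 4 µg per 6-well well. Ligand, when used, was added 1 h before transfection. Total RNA was extracted with EDTA 72 h later, then reverse-transcribed, amplified, barcoded and sequenced. RNA level was RNA reads over DNA reads, divided by a spiked-in non-cleaving control (or the top 25 sequences), ×100, log10; only sequences with ≥100 DNA reads were kept.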

[3] = variants of: B1; assay: normalized RNA/DNA level without ligand (relative to sTRSVctl = 100) (log10 (% of sTRSVctl)); ligand: hypoxanthine (xanthine aptamer); higher = less ribozyme self-cleavage, higher mRNA level; details: HEK293T, reporter: mCherry (pCS4076), ligand present: no
In short: as §2

[4] = variants of: B1; assay: FACS-Seq fitted mean relative fluorescence mCherry/BFP with ligand (log10 relative fluorescence); ligand: hypoxanthine (xanthine aptamer); ligand concentration (+) FACS-Seq: 5 mM; higher = higher reporter protein expression; details: HEK293T, ligand present: yes
In short: as §1

Variant | FACS-Seq fitted mean (log10) [1] | normalized RNA/DNA level with ligand (log10) [2] | normalized RNA/DNA level without ligand (log10) [3] | FACS-Seq fitted mean (log10) [4]
CUAAGC | 0.0548 ± 0.024 | 1.94 ± 0.048 | 1.851 ± 0.0075 | 0.039 ± 0.019
CUAAGU | 0.447 ± 0.0085 | 1.93 ± 0.023 | 1.86 ± 0.031 | 0.262 ± 0.12
AUAGAA | 0.429 ± 0.005 | 1.87 ± 0.089 | 1.705 ± 0.0096 | 0.6216 ± 0.0039
AUAGAC | 0.72 ± 0.12 | 1.88 ± 0.035 | 1.8 ± 0.018 | 0.755 ± 0.051
CUAUUA | 0.569 ± 0.023 | 1.942 ± 0.019 | 1.85 ± 0.054 | 0.484 ± 0.053
CUAUUC | 0.8316 ± 0.0023 | 2 ± 0.02 | 1.84 ± 0.055 | 0.762 ± 0.023
CUAUUG | 0.179 ± 0.031 | 1.95 ± 0.048 | 1.843 ± 0.0087 | 0.763 ± 0.041
GUCAGU | 0.34 ± 0.024 | 1.94 ± 0.023 | 1.833 ± 0.0092 | 0.492 ± 0.11
GUCAGG | 0.326 ± 0.071 | 1.858 ± 0.016 | 1.46 ± 0.042 | 0.67 ± 0.0068
GUCAGC | 0.371 ± 0.0086 | 1.925 ± 0.011 | 1.79 ± 0.018 | 0.605 ± 0.059
GUCAGA | -0.213 ± 0.0037 | 1.897 ± 0.0028 | 1.74 ± 0.042 | -0.0451 ± 0.017
GUAAAA | 0.614 ± 0.066 | 1.92 ± 0.06 | 1.815 ± 0.0075 | 0.661 ± 0.033
GUAAAC | 0.572 ± 0.053 | 1.946 ± 0.0036 | 1.74 ± 0.028 | 0.739 ± 0.055
GUAAAU | 0.503 ± 0.07 | 1.88 ± 0.053 | 1.778 ± 0.011 | 0.467 ± 0.11
GUAAAG | -0.0437 ± 0.028 | 1.82 ± 0.023 | 1.49 ± 0.045 | -0.15 ± 0.059
AUAAUA | -0.24 ± 0.021 | 1.886 ± 0.012 | 1.82 ± 0.0094 | -0.134 ± 0.044
AUAAUU | 0.751 ± 0.0089 | 1.92 ± 0.046 | 1.83 ± 0.061 | 0.619 ± 0.013
AUAAUG | 0.211 ± 0.039 | 1.838 ± 0.013 | 1.51 ± 0.064 | 0.551 ± 0.036
AUAUGU | 0.416 ± 0.0064 | 1.886 ± 0.0057 | 1.68 ± 0.054 | 0.511 ± 0.015
AUAUGG | -0.462 ± 0.062 | 1.802 ± 0.0067 | 1.374 ± 0.0022 | -0.111 ± 0.04
AUAUGA | 0.609 ± 0.0086 | 1.924 ± 0.0023 | 1.7 ± 0.02 | 0.758 ± 0.018
CUACAA | 0.07 ± 0.013 | 1.9 ± 0.013 | 1.79 ± 0.044 | -0.0643 ± 0.025
UGUUUG | -0.153 ± 0.036 | 2.04 ± 0.037 | 1.93 ± 0.035 | 0.0349 ± 0.0062
UUACUG | 0.491 ± 0.085 | 1.93 ± 0.039 | 1.67 ± 0.034 | 0.536 ± 0.13

Variant | FACS-Seq fitted mean (log10) [1] | normalized RNA/DNA level with ligand (log10) [2] | normalized RNA/DNA level without ligand (log10) [3] | FACS-Seq fitted mean (log10) [4]
GUCAUG | 0.242 ± 0.025 | 1.9 ± 0.027 | 1.53 ± 0.025 | 0.491 ± 0.014
CUAUGG | 0.518 ± 0.013 | 1.888 ± 0.00026 | 1.6 ± 0.027 | 0.234 ± 0.17
AUAACA | 0.00278 ± 0.0073 | 1.9 ± 0.041 | 1.83 ± 0.031 | 0.0853 ± 0.19
GUAUCU | 0.165 ± 0.12 | 1.966 ± 0.0064 | 1.94 ± 0.025 | 0.536 ± 0.059
AUAGGG | 0.023 ± 0.0025 | 1.807 ± 0.011 | 1.38 ± 0.0023 | 0.46 ± 0.053
AUAGGA | 0.382 ± 0.011 | 1.9 ± 0.042 | 1.658 ± 0.015 | 0.529 ± 0.017
AGUUGG | -0.154 ± 0.12 | 1.8 ± 0.037 | 1.338 ± 0.0021 | 0.403 ± 0.075
AGUUGC | 0.226 ± 0.043 | 1.91 ± 0.048 | 1.72 ± 0.022 | 0.382 ± 0.02
UUAACG | 0.325 ± 0.025 | 1.94 ± 0.06 | 1.85 ± 0.052 | 0.41 ± 0.025
AUCAUA | 0.467 ± 0.023 | 1.92 ± 0.035 | 1.798 ± 0.0029 | 0.562 ± 0.061
AUCAUU | 0.581 ± 0.01 | 1.96 ± 0.037 | 1.96 ± 0.029 | 0.691 ± 0.072
GUAUGU | 0.23 ± 0.082 | 1.899 ± 0.013 | 1.77 ± 0.017 | 0.398 ± 0.0075
GUAUGG | 0.0518 ± 0.044 | 1.783 ± 0.01 | 1.331 ± 0.013 | 0.63 ± 0.026
GUAUGA | 0.0955 ± 0.069 | 1.89 ± 0.049 | 1.64 ± 0.012 | 0.000695 ± 0.097
GUAGAG | 0.148 ± 0.015 | 1.83 ± 0.073 | 1.31 ± 0.16 | 0.627 ± 0.068
GUAGAA | 0.2674 ± 0.0022 | 1.89 ± 0.03 | 1.723 ± 0.0046 | 0.342 ± 0.023
UUAAAU | 0.322 ± 0.05 | 1.959 ± 0.016 | 1.83 ± 0.024 | 0.322 ± 0.013
UUAAAA | 0.501 ± 0.012 | 1.966 ± 0.016 | 1.795 ± 0.0061 | 0.388 ± 0.15
UUAAAG | 0.207 ± 0.12 | 1.886 ± 0.0075 | 1.6908 ± 0.00025 | 0.201 ± 0.0094
AUAUUG | 0.2149 ± 0.0019 | 1.87 ± 0.053 | 1.53 ± 0.075 | 0.486 ± 0.011
AUAUUC | 0.242 ± 0.014 | 1.92 ± 0.042 | 1.88 ± 0.051 | 0.166 ± 0.071
AUAAAG | 0.43 ± 0.03 | 1.87 ± 0.024 | 1.51 ± 0.053 | 0.678 ± 0.081
AUAAAU | 0.431 ± 0.027 | 1.9 ± 0.035 | 1.7593 ± 0.00014 | 0.576 ± 0.017
AUAAAC | 0.413 ± 0.047 | 1.893 ± 0.0082 | 1.81 ± 0.023 | 0.517 ± 0.15

Variant | FACS-Seq fitted mean (log10) [1] | normalized RNA/DNA level with ligand (log10) [2] | normalized RNA/DNA level without ligand (log10) [3] | FACS-Seq fitted mean (log10) [4]
GUAACG | 0.351 ± 0.015 | 1.93 ± 0.048 | 1.59 ± 0.022 | 0.537 ± 0.02
CGUUGG | 0.31411 ± 0.00021 | 1.966 ± 0.0055 | 1.413 ± 0.0094 | 0.58 ± 0.022
GUACAA | -0.152 ± 0.025 | 1.91 ± 0.035 | 1.76 ± 0.064 | 0.27 ± 0.051
GUACAG | 0.688 ± 0.084 | 1.87 ± 0.071 | 1.45 ± 0.07 | 0.818 ± 0.08
AUAGUA | 0.52 ± 0.03 | 1.88 ± 0.034 | 1.751 ± 0.013 | 0.621 ± 0.066
AUAGUG | 0.213 ± 0.046 | 1.82 ± 0.041 | 1.362 ± 0.012 | 0.348 ± 0.12
UUCCAC | 0.451 ± 0.048 | 1.97 ± 0.077 | 1.88 ± 0.027 | 0.5314 ± 0.0026
CUACUA | 0.522 ± 0.16 | 1.9 ± 0.046 | 1.78 ± 0.02 | 0.51 ± 0.059
AUACCG | 0.00532 ± 0.0097 | 1.84 ± 0.095 | 1.47 ± 0.035 | 0.282 ± 0.082
AUACCC | 0.513 ± 0.014 | 1.94 ± 0.043 | 1.89 ± 0.027 | 0.292 ± 0.028
GUAUUG | -0.148 ± 0.011 | 1.882 ± 0.011 | 1.45 ± 0.1 | 0.209 ± 0.0066
UUACGU | 0.582 ± 0.017 | 1.95 ± 0.075 | 1.83 ± 0.025 | 0.566 ± 0.013
UUCACA | 0.502 ± 0.065 | 1.9 ± 0.051 | 1.88 ± 0.05 | 0.58 ± 0.026
CUAGCA | 0.139 ± 0.058 | 1.93 ± 0.038 | 1.83 ± 0.04 | 0.177 ± 0.018
UUAAUA | 0.528 ± 0.021 | 1.9466 ± 0.0017 | 1.79 ± 0.029 | 0.658 ± 0.014
CGUUUC | 0.944 ± 0.041 | 1.95 ± 0.058 | 1.908 ± 0.0084 | 0.812 ± 0.15
AUCAAG | 0.0695 ± 0.06 | 1.85 ± 0.043 | 1.5 ± 0.06 | 0.339 ± 0.047
GUACGG | -0.0891 ± 0.011 | 1.893 ± 0.016 | 1.4 ± 0.048 | 0.337 ± 0.062
GUACGU | 0.418 ± 0.03 | 1.8918 ± 0.0012 | 1.78 ± 0.067 | 0.626 ± 0.09
UUAUAC | 0.396 ± 0.054 | 1.908 ± 0.015 | 1.827 ± 0.0035 | 0.632 ± 0.0036
CUAGAA | 0.259 ± 0.2 | 1.92 ± 0.032 | 1.79 ± 0.042 | 0.359 ± 0.059
CUAGAC | 0.273 ± 0.014 | 1.901 ± 0.0041 | 1.832 ± 0.011 | 0.149 ± 0.099
CUAGAU | -0.176 ± 0.0088 | 1.96 ± 0.051 | 1.79 ± 0.056 | 0.0723 ± 0.049
AUAUCG | 0.607 ± 0.0094 | 1.86 ± 0.065 | 1.44 ± 0.045 | 0.756 ± 0.042
